In article doi:10.1101/2025.06.25.661518:

Tests used:
[1] = test system: BALF2 wild type (Epstein-Barr virus (EBV)); assay: fluorescence anisotropy; conditions: not in material (Methods absent); anisotropy titrations in triplicate
[2] = test system: BALF2 Δ52 (Epstein-Barr virus (EBV)); assay: fluorescence anisotropy; conditions: not in material (Methods absent); anisotropy titrations in triplicate

16-mer ssDNA
Kd [1]: 232 nM
Kd [2]: 1040 nM
